Laboratory results as given in US20070184522A1, “Cell death modulation via antagonists of Fasl and Fas activation” (University of Pittsburgh of the Commonwealth System of …, priority 2004, published 2007).

T1: Fas trimerization in Jurkat cells (Homo sapiens, UniProt P25445)
T1 construct: endogenous in cells; host or cells: Jurkat
T1 sequence (P25445 26-335): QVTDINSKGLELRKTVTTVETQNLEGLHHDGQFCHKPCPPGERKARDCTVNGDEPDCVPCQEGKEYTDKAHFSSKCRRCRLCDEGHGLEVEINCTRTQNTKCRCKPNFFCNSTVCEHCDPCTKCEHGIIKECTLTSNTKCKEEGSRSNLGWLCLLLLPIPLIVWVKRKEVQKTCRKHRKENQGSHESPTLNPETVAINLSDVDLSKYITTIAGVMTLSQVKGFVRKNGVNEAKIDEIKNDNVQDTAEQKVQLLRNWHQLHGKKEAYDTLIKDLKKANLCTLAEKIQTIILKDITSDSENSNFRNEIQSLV

B1: FasL: recombinant soluble Fas Ligand, cognate ligand of Fas, used to induce apoptosis (protein)
chain: QLFHLQKELAELRESTSQMHTASSLEKQIGHPSPPPEKKELRKVAHLTGKSNSRSMPLEWEDTYGIVLLSGVKYKKGGLVINETGLYFVYSKVYFRGQSCNNLPLSHKVYMRNSKYPQDLVMMEGKMMSYCTTGQMWARSSYLGAVFNLTSADHLYVNVSELSLVNFEESQTFFGLYKL

Tests used:
[1] = molecular target: CFP-tagged and YFP-tagged Fas expressed in Hepa 1-6 cells; assay: cell-based or functional assay
[2] = molecular target: endogenous Fas of Jurkat cells (human) (UniProt P25445); assay: cell-based or functional assay
[3] = tested on: Fas capping in Hepa 1-6 cells; assay: Fas capping of fluorescent protein tagged Fas in Hepa 1-6 cells; type: cell-based; conditions: Hepa 1-6, 30 minutes treatment
Description: (§1) FIG. 3a presents data collected from Jurkat cells (1×10^6) treated with 2 μg/ml of Fas Ligand with or without AlphaMet for 30 minutes on ice. Cells were washed with PBS twice and then incubated with 2 mM of DTSSP in PBS for 30 minutes. The crosslinking process was stopped by 20 mM of Tris (pH 7.5) for another 30 minutes. Cells were spun down and washed with PBS twice and lyzed in RIPA buffer. Cell lysates were subjected to SDS-PAGE under non-reducing or reducing conditions (FIG. 3b) and Western blot analysis using the mouse monoclonal antibody against human Fas. FIG. 3c depicts the quantification of the data in FIG. 3a by densitometry. The data are the mean and SE from three different independent crosslinking and Western blot experiments. […] Frame A: Acceptor CFP-Fas image; Frame B: Acceptor pre-bleach CFP-Fas image; Frame C: Acceptor post-bleach image. Frame D: Donor YFP-Fas image; Frame E: Donor pre-bleach image; Frame F: […]. The CFP-Fas strength in the selected region obtained a gain of 19.3% efficiency in the presence of FasL for 15 minutes. No FRET was observed without FasL. […] FIG. 3e depicts the results of experiments in which CFP-tagged Fas or CFP control vector were transiently expressed in Hepa 1-6 Cells (3×10^5). Cells were treated with 1 μg/ml of Fas ligand or 100 ng/ml of Jo2 with or without 5 μg/ml of AlphaMet or 1 μg/ml of YLGA 12 mer for 30 minutes on ice. Cells were fixed and analyzed by fluorescence microscopy. Frame A: AlphaMet treatment only, no FasL; Frame B: Fas ligand treatment only; Frame C: Fas ligand and AlphaMet treatment; Frame D: Fas ligand and 12 mer YLGA; Frame E: Jo2 treatment only and Frame F: Jo2 and AlphaMet treatment.
Fluorescence protein tagged Fas molecules and Hepa 1-6 cells were used for these experiments. These cells were transiently co-transfected with CFP and YFP chimeric Fas expression vectors using the lipofectamine 2000 method (Invitrogen). After 24 hours of transfection, about 50% of the cells were fluorescing. The cells were treated by Fas-ligand in the presence or absence of AlphaMet for 30 minutes. Treated cells were then fixed with cold methanol and subjected to FRET analysis. Cells were considered positive if FRET efficiency was over 10%. FRET phenomenon was observed only in cells that were treated with Fas-ligand. […] In these experiments the percent of Fas capping was also determined.

[4] = tested on: Jurkat cells; assay: Fas-ligand induced apoptosis in Jurkat cells (Trypan Blue, flow cytometry); type: cell-based, human
Description: For FIG. 4a, Jurkat cells (1.5×10^5) were overnight treated in triplicate with 5 ng/ml of crosslinked human Fas ligand with or without 5 μg/ml of recombinant AlphaMet or 1 μg/ml of the indicated polypeptides. Percent apoptosis was determined by Trypan Blue staining using a hemocytometer. The data are representative and were repeated at least four times. […] The 17 kDa fragment of cleaved Caspase 3 is visualized by this antibody. The blot was reprobed for β-actin as a loading control. For FIG. 4c, serum deprived Hepa 1-6 cells (3×10^5) were overnight treated with 1 μg/ml of crosslinked mouse Fas ligand with or without AlphaMet or the indicated polypeptide. Media were collected and centrifuged to pellet the dead cells. […] The data in FIG. 4c represents three independent experiments.
Apoptosis assay. Pre-washed Jurkat cells in RPMI 1640 medium containing 1% FBS were inoculated in 96-wells at a density of 10^5 cells per well. Apoptosis was induced by cross-linked human Fas-ligand (R&D Systems) at a concentration of 0.5 ng/ml or Anti-Fas (human, activating) clone CH11 (Upstate biotechnology) at a concentration of 500 ng /ml. Hepa 1-6 cells were overnight starved before induction of apoptosis. The apoptosis in Hepa 1-6 was induced by anti-mouse Fas antibody Jo2 (200 ng/ml) or human recombinant Fas-ligand. The extent of cell viability and apoptosis was determined by several methods such as Trypan Blue stain, flow cytometry, LDH assay, and Hoechst staining.

[5] = molecular target: T1, Fas trimerization in Jurkat cells; assay: Chemical crosslinking (DTSSP) and Western blot of Fas trimerization in Jurkat cells; type: cell-based; conditions: Fas-Ligand and DTSSP
Description: as §1, with “Cells were treated with 1 μg/ml of Fas ligand or 100 ng/ml of Jo2 with or without 5 μg/ml of AlphaMet or 1 μg/ml of YLGA 12 mer for 30 minutes on ice.” left out, “Frame A: AlphaMet treatment only, no FasL; Frame B: Fas ligand treatment only; Frame C: Fas ligand and AlphaMet treatment; Frame D: Fas ligand and 12 mer YLGA; Frame E: Jo2 treatment only and Frame F: Jo2 and AlphaMet treatment.” left out

[6] = tested on: Fas self-assembly in Hepa 1-6 cells; assay: FRET assay of CFP-Fas/YFP-Fas in transfected Hepa 1-6 cells; type: cell-based; conditions: Hepa 1-6, FasL for 15 minutes
Description: FIG. 3a presents data collected from Jurkat cells (1×10^6) treated with 2 μg/ml of Fas Ligand with or without AlphaMet for 30 minutes on ice. Cells were washed with PBS twice and then incubated with 2 mM of DTSSP in PBS for 30 minutes. The crosslinking process was stopped by 20 mM of Tris (pH 7.5) for another 30 minutes. Cells were spun down and washed with PBS twice and lyzed in RIPA buffer. Cell lysates were subjected to SDS-PAGE under non-reducing or reducing conditions (FIG. 3b) and Western blot analysis using the mouse monoclonal antibody against human Fas. FIG. 3c depicts the quantification of the data in FIG. 3a by densitometry. The data are the mean and SE from three different independent crosslinking and Western blot experiments. […] Frame A: Acceptor CFP-Fas image; Frame B: Acceptor pre-bleach CFP-Fas image; Frame C: Acceptor post-bleach image. Frame D: Donor YFP-Fas image; Frame E: Donor pre-bleach image; Frame F: Donor pre-bleach image. […] Cells were fixed and analyzed by fluorescence microscopy. […]
FRET assay. […] Fret efficiency (E) was calculated as FRETeff=(Dpost−Dpre)/Dpost (Dpost and Dpre are the mean emission intensity […] YFP bleaching).
Fluorescence protein tagged Fas molecules and Hepa 1-6 cells were used for these experiments. […] In these experiments the percent of Fas capping was also determined.

Molecule | FRET efficiency between CFP-Fas and YFP-Fas [1] [%] | percent of fluorescent cells showing Fas capping [1] [%] | Fas trimerization (DTSSP crosslinking, Western blot, densitometry) [2] [fold] | fluorescent cells showing Fas capping [3] [%] | death rate ([4]; Fas-ligand overnight, AlphaMet 5 μg/ml, Trypan Blue) | sub-G1 (apoptotic) population ([4]; Propidium Iodide flow cytometry, Fas-ligand) [%] | intensity of trimeric Fas complex versus ligand unstimulated crosslinked cells [5] | FRET efficiency gain [6] [%]
soluble Fas Ligand (recombinant FasL) | 19.3 | 20 | 3 | – | – | – | – | –
B1 | – | – | – | 20 | about 50% | 48 | about 3 fold | 19.3
